In general, EC50 (read off the curve) refers to the concentration needed to bring the measured effect to its halfway point.

Test [1] concerns the target human macrophage migration-inhibitory factor (MIF) (human) (UniProt P14174). Nature of the test: cell-based or functional assay.
Test [2] shares this target. Nature of the test: fluorescence spectroscopic titration.
The target is the same in test [3]. Nature of the test: fluorescence spectroscopic titration, apparent Kd; Fluos-ngm titrated with MIF.
For test [4] the target is unchanged. Nature of the test: fluorescence spectroscopic titration, apparent Kd; Alexa-488-MIF titrated with ngm.
In another test the target is CXCL12 (human) (UniProt P48061). Description: fluorescence spectroscopic titration, apparent KD; Fluos-labelled peptide (5 nM) titrated with CXCL12.
CXCL12 (human), sequence (P48061 22-89 limits assumed): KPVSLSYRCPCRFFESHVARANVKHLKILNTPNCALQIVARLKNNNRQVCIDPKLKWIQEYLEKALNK
Test [5] has as its target msR4M-L1 (CXCR4-ECL1[97-110]-6-Ahx-12-Ado-ECL2[182-196]) (human). Nature of the test: fluorescence spectroscopic titration, self-assembly; Fluos-msR4M-L1 titrated with unlabelled msR4M-L1.
Test [6] deals with human macrophage migration-inhibitory factor (MIF) (human) (UniProt P14174). Description: fluorescence spectroscopic titration of Alexa-MIF with increasing ngm-L5 [panel D].
human macrophage migration-inhibitory factor (MIF) (human), sequence (P14174 2-115 limits assumed): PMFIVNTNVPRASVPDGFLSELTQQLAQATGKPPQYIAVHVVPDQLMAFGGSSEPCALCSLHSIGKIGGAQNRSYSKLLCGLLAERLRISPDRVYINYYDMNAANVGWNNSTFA

Regarding “msR4M-L4 ([ECL1(102-110)]-8 Aoc-[ECL2(187-195)]) (designed binder)”, the Atherogenic inhibitory activity (Dil-LDL uptake) (% of full-length msR4M-L1) in test [1] was determined as 80. Also, the Kd in test [2] is 12 nM; in test [3], 11.9 nM; in test [4], 43.2 nM.

With “msR4M-L1 (CXCR4-ECL1[97-110]-6-Ahx-12-Ado-ECL2[182-196]) (designed binder)”, the Kd with CXCL12 (human) was more than 5 µM; in test [5], 142 nM.

On to “msR4M-L5 ([ECL1(102-110)]-O1pen-O1pen-[ECL2(187-195)]) (designed binder)”, for which the Atherogenic inhibitory activity (Dil-LDL uptake) (% of full-length msR4M-L1) in test [1] amounted to 30. The substance further displayed an IC50 of inhibition of MIF-triggered Dil-oxLDL uptake (foam cell assay) in test [1] of 69.7 nM. The Kd in test [2] came to 14 nM; in test [3], 14.3 nM; in test [4], 41.8 nM. Further, the EC50 (read off the curve) in test [6] worked out at 40 nM.

In test [1], “msR4M-L3 ([ECL1(102-110)]-6 Ahx-12 Ado-[ECL2(187-195)]) (designed binder)” had an Atherogenic inhibitory activity (Dil-LDL uptake) (% of full-length msR4M-L1) of 80. Besides, the figures for the Kd in test [2], in test [3] and in test [4] were 14 nM, 44.4 nM and 11.7 nM, respectively.

Source of the values: US20230242616A1, “CHEMOKINE-SELECTIVE CXCR4 ECTODOMAIN-DERIVED (POLY)PEPTIDE” (Ludwig-Maximilians-Universität München, priority 2020, published 2023).
